# Assay results as given in paper PMC3350598 (Structure(London, England:1993), 2012).
# T1: Broxs, short form of the human Brox protein (residues 2-377) (human, UniProt Q5VW32 2-377)
# T1 sequence (looked up): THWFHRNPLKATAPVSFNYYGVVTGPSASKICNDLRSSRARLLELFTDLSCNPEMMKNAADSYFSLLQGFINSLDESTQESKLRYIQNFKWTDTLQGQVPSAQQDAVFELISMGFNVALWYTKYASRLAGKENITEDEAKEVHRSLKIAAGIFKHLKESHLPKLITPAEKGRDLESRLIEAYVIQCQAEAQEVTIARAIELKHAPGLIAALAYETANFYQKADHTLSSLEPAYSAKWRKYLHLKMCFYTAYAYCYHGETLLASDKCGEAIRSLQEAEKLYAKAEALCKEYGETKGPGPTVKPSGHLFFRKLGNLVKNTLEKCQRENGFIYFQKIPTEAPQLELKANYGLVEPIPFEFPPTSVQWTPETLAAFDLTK
# T2: Broxl, long form of the human Brox protein (residues 2-411) (human, UniProt Q5VW32 2-411)
# T2 sequence (looked up): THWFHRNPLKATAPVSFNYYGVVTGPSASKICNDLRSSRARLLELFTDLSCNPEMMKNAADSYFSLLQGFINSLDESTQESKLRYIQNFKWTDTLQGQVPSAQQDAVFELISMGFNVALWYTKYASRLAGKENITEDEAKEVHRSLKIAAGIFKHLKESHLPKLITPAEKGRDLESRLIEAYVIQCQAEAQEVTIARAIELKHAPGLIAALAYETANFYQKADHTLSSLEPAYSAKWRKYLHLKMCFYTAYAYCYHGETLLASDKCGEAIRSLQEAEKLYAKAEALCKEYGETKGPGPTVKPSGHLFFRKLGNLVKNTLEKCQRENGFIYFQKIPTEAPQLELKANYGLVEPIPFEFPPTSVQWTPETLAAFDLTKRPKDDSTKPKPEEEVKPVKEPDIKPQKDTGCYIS
# Tests used:
# [1] = target: T1, Broxs, short form of the human Brox …; experiment: crystal structure
# [2] = target: T2, Broxl, long form of the human Brox …; experiment: crystal structure
binding result [1],binding result [2],Binder
binds,binds,TKNKDGVLVDEFGLPQIPAS [synthesized peptide corresponding to the CHMP5 C-terminal 20 residues]
binds,binds,"C-terminal fragment of human CHMP5 (residues 151-219) (domain or fragment, UniProt Q9NZZ3 151-219, looked up) RSYGTPELDEDDLEAELDALGDELLADEDSSYLDEAASAPAIPEGVPTDTKNKDGVLVDEFGLPQIPAS"
